{"source": "patent CN118184778A", "binders": {"B1": {"name": "单克隆抗体1D9 (AD7c-NTP单克隆抗体A1) (antibody, V domains shown)", "VH": "DVQLQESGPGLVKPSQSLSLTCTVTDYSITSDYAWNWIRQFPGNKLEWMGYISYSGSTNYNPSLKSRFSITRDTSKNQFFLQLNSVTTEDTATYYCAGSELYYGYHYVMDYWGQGTSVTVSS", "VL": "ENVLTQSPAIMSASLGQKVTMTCSASSSVSSSYLHWYQQRSGASPKPLIHRTSNLASGVPARFSGSGSGTSYSLTISSVEAEDDATYYCQQWSGYPLTFGAGTKLELK"}}, "molecular_target": "重组AD7c-NTP蛋白 (human)", "sequence (chain, as listed by the source)": "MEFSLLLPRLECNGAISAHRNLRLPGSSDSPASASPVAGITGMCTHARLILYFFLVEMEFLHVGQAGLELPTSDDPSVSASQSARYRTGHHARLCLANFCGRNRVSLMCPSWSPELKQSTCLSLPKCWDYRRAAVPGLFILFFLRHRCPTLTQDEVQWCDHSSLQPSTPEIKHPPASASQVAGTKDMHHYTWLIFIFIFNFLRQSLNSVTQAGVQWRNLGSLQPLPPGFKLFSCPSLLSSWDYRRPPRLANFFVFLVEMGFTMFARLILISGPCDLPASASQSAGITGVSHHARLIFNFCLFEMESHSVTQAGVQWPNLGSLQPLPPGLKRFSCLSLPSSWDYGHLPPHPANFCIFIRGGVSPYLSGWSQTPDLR", "test": "indirect ELISA; plate coated with 1 μg/mL recombinant AD7c-NTP, antibody serially diluted, HRP goat anti-mouse IgG, OD450"}
{"binder": "B1", "values": [{"measurement": "最小反应极限", "result": 9.77, "unit": "ng/mL"}]}
